The numbers were not newly measured in PMC8070608, which cites them from elsewhere.

pKd: −log10 of the molar value. Read-outs that look alike come from different tables or passages of the source.

Data set [1] addresses plasminogen (Homo sapiens) (UniProt P00747).
The target in data set [2] is tPA (Homo sapiens) (UniProt P00750).
The target is the same in data set [3]. This is another data set of the same source.

Sequence of UniProt P00750 (P00750 36-562): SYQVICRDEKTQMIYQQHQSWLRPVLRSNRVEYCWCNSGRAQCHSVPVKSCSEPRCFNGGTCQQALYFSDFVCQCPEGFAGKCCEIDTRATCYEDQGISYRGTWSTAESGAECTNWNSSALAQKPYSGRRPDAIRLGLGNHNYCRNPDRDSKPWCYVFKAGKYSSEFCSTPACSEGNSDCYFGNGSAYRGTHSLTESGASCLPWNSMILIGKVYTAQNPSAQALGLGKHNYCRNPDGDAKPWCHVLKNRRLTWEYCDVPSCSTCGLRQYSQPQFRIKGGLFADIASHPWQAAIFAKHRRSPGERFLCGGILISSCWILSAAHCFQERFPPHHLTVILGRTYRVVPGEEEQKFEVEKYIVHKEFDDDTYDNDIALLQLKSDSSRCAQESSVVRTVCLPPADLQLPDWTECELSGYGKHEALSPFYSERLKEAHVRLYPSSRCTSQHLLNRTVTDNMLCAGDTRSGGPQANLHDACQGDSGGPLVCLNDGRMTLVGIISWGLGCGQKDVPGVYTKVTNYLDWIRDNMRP
Sequence of UniProt P00747 (P00747 20-810): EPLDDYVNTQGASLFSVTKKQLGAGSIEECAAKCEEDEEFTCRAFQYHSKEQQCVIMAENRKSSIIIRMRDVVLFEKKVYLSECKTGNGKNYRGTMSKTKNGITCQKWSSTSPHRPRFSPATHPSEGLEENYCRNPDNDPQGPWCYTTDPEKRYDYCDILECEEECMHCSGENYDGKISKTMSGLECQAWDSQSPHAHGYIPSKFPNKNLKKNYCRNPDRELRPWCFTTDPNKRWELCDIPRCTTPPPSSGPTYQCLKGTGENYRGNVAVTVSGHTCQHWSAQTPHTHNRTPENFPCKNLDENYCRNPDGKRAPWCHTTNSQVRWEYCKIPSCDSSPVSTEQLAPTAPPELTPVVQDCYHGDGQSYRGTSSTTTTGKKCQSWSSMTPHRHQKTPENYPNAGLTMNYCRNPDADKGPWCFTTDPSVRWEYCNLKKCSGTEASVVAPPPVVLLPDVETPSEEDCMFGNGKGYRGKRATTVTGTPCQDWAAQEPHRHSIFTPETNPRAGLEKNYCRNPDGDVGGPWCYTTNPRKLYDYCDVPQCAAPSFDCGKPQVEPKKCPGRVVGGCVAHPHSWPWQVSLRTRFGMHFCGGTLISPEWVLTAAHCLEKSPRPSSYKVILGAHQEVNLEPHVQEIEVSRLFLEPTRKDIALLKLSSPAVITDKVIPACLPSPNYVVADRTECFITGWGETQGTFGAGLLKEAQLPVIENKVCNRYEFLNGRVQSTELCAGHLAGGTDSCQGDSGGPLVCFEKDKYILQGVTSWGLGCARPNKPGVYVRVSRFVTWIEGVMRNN

By pKd is commonly meant −log10 of the Kd, conventionally taken in molar units. Regarding p11 (from UniProt P60903), the figures for the pKd (in data set [1]; with tPA (Homo sapiens) [2]) were 6.96 and 6.17, respectively.
For the substance p36 (annexin A2) (from UniProt P07355), in the data set with tPA (Homo sapiens) [3], the pKd is 7.32.
